According to PMC3213134, “A Non-Motor Microtubule Binding Site Is Essential for the High Processivity and Mitotic Function of Kinesin-8 Kif18A” (PLoS ONE, 2011):

Target: the molecule itself
Assay: photobleaching step counting (TIRF microscopy, streaming mode); single GFP-tagged motors moving on immobilised microtubules, ATP reduced to 15 µM, 100 ms exposure for 1200 frames; only one and two step bleaching events seen

B1: His-Kif18A^1-777-GFP (domain or fragment, human, UniProt Q8NI77 1-777, looked up)
chain: MSVTEEDLCHHMKVVVRVRPENTKEKAAGFHKVVHVVDKHILVFDPKQEEVSFFHGKKTTNQNVIKKQNKDLKFVFDAVFDETSTQSEVFEHTTKPILRSFLNGYNCTVLAYGATGAGKTHTMLGSADEPGVMYLTMLHLYKCMDEIKEEKICSTAVSYLEVYNEQIRDLLVNSGPLAVREDTQKGVVVHGLTLHQPKSSEEILHLLDNGNKNRTQHPTDMNATSSRSHAVFQIYLRQQDKTASINQNVRIAKMSLIDLAGSERASTSGAKGTRFVEGTNINRSLLALGNVINALADSKRKNQHIPYRNSKLTRLLKDSLGGNCQTIMIAAVSPSSVFYDDTYNTLKYANRAKDIKSSLKSNVLNVNNHITQYVKICNEQKAEILLLKEKLKAYEEQKAFTNENDQAKLMISNPQEKEIERFQEILNCLFQNREEIRQEYLKLEMLLKENELKSFYQQQCHKQIEMMCSEDKVEKATGKRDHRLAMLKTRRSYLEKRREEELKQFDENTNWLHRVEKEMGLLSQNGHIPKELKKDLHCHHLHLQNKDLKAQIRHMMDLACLQEQQHRQTEAVLNALLPTLRKQYCTLKEAGLSNAAFESDFKEIEHLVERKKVVVWADQTAEQPKQNDLPGISVLMTFPQLGPVQPIPCCSSSGGTNLVKIPTEKRTRRKLMPSPLKGQHTLKSPPSQSVQLNDSLSKELQPIVYTPEDCRKAFQNPSTVTLMKPSSFTTSFQAISSNINSDNCLKMLCEVAIPHNRRKECGQEDLDSTFTICEDIK
notes: not shown: His6, N-terminal, kept; GFP, C-terminal, kept
  stoichiometry N: 2

B2: His-Kif18A^FL-GFP (natural protein, human, UniProt Q8NI77 1-898, looked up)
chain: MSVTEEDLCHHMKVVVRVRPENTKEKAAGFHKVVHVVDKHILVFDPKQEEVSFFHGKKTTNQNVIKKQNKDLKFVFDAVFDETSTQSEVFEHTTKPILRSFLNGYNCTVLAYGATGAGKTHTMLGSADEPGVMYLTMLHLYKCMDEIKEEKICSTAVSYLEVYNEQIRDLLVNSGPLAVREDTQKGVVVHGLTLHQPKSSEEILHLLDNGNKNRTQHPTDMNATSSRSHAVFQIYLRQQDKTASINQNVRIAKMSLIDLAGSERASTSGAKGTRFVEGTNINRSLLALGNVINALADSKRKNQHIPYRNSKLTRLLKDSLGGNCQTIMIAAVSPSSVFYDDTYNTLKYANRAKDIKSSLKSNVLNVNNHITQYVKICNEQKAEILLLKEKLKAYEEQKAFTNENDQAKLMISNPQEKEIERFQEILNCLFQNREEIRQEYLKLEMLLKENELKSFYQQQCHKQIEMMCSEDKVEKATGKRDHRLAMLKTRRSYLEKRREEELKQFDENTNWLHRVEKEMGLLSQNGHIPKELKKDLHCHHLHLQNKDLKAQIRHMMDLACLQEQQHRQTEAVLNALLPTLRKQYCTLKEAGLSNAAFESDFKEIEHLVERKKVVVWADQTAEQPKQNDLPGISVLMTFPQLGPVQPIPCCSSSGGTNLVKIPTEKRTRRKLMPSPLKGQHTLKSPPSQSVQLNDSLSKELQPIVYTPEDCRKAFQNPSTVTLMKPSSFTTSFQAISSNINSDNCLKMLCEVAIPHNRRKECGQEDLDSTFTICEDIKSSKCKLPEQESLPNDNKDILQRLDPSSFSTKHSMPVPSMVPSYMAMTTAAKRKRKLTSSTSNSSLTADVNSGFAKRVRQDNSSEKHLQENKPTMEHKRNICKINPSMVRKFGRNISKGNLR
notes: also called full-length Kif18A^FL-GFP; not shown: His6, N-terminal, kept; GFP, C-terminal, kept
  stoichiometry N: 2
